In ChEMBL document CHEMBL1157152, “Kinetic parameters and recognition of thymidine analogues with varying functional groups by thymidine phosphorylase” (Bioorg Med Chem, 2008):

Columns and labels:
[1] = substrate: Cc1cn([C@H]2CC[C@@H](CO)O2)c(=O)[nH]c1=O; assay: (§1) Activity of Escherichia coli thymidine phosphorylase
[2] = substrate: Cc1cn([C@H]2C[C@H](O)[C@@H](CO)O2)c(=O)[nH]c1=O; assay: as §1
[3] = substrate: Cc1cn([C@H]2C[C@H](O)[C@@H](C)O2)c(=O)[nH]c1=O; assay: as §1

B1: Thymidine phosphorylase (Escherichia coli K-12), P07650 (protein)
chain: MFLAQEIIRKKRDGHALSDEEIRFFINGIRDNTISEGQIAALAMTIFFHDMTMPERVSLTMAMRDSGTVLDWKSLHLNGPIVDKHSTGGVGDVTSLMLGPMVAACGGYIPMISGRGLGHTGGTLDKLESIPGFDIFPDDNRFREIIKDVGVAIIGQTSSLAPADKRFYATRDITATVDSIPLITASILAKKLAEGLDALVMDVKVGSGAFMPTYELSEALAEAIVGVANGAGVRTTALLTDMNQVLASSAGNAVEVREAVQFLTGEYRNPRLFDVTMALCVEMLISGKLAKDDAEARAKLQAVLDNGKAAEVFGRMVAAQKGPTDFVENYAKYLPTAMLTKAVYADTEGFVSEMDTRALGMAVVAMGGGRRQASDTIDYSVGFTDMARLGDQVDGQRPLAVIHAKDENNWQEAAKAVKAAIKLADKAPESTPTVYRRISE
How did the Km [1] turn out when B1 was run?
Its Km is 32 mM.

And the Vmax [1]?
Its Vmax is 0.014 mM/min.

What about the Km [2] of the same protein?
Its Km is 2.5 mM.

And the Vmax [2]?
The Vmax was 5.2 mM/min.

What about the Km [3] of the same protein?
The Km was 10 mM.

What about the Vmax [3] of the same protein?
Its Vmax is 3.4 mM/min.
